Laboratory results published in publication PMC12733253, “NFE2 Truncation Mutants Protect Wild-Type NFE2 from ITCH-Dependent Degradation” (International Journal of Molecular Sciences, 2025).

Target: itchy E3 ubiquitin protein ligase (ITCH), wild type, MYC-tagged (UniProt Q96J02-2 1-862)
Assay: cell-based or functional assay

itchy E3 ubiquitin protein ligase (ITCH), wild type, MYC-tagged, sequence (Q96J02 other isoform, or with tags, fused parts or gaps): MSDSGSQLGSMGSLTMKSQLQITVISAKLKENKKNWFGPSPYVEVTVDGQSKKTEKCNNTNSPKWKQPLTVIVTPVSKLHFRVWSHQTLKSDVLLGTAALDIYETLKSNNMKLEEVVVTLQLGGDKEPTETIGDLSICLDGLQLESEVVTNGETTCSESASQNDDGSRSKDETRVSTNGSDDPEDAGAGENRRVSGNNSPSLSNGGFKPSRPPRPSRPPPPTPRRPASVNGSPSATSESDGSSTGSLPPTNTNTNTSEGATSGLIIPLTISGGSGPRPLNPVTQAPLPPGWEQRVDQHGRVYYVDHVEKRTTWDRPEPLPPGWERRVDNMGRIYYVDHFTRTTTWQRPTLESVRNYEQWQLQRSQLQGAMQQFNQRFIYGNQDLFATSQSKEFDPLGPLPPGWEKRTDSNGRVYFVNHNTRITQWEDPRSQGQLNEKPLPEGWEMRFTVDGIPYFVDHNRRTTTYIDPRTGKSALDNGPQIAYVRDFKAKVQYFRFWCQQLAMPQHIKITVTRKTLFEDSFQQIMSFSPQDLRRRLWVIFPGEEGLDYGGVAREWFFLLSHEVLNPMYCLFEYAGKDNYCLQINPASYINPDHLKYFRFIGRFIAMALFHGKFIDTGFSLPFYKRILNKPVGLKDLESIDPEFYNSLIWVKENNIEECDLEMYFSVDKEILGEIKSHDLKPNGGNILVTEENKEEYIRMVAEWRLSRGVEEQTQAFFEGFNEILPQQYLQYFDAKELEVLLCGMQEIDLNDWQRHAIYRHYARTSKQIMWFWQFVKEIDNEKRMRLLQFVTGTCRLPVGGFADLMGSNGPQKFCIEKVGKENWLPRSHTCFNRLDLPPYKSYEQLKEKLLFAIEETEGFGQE

B1: wild-type nuclear factor erythroid 2 (NFE2), HA-tagged (natural protein, human, UniProt Q16621 1-373, looked up)
chain: MSPCPPQQSRNRVIQLSTSELGEMELTWQEIMSITELQGLNAPSEPSFEPQAPAPYLGPPPPTTYCPCSIHPDSGFPLPPPPYELPASTSHVPDPPYSYGNMAIPVSKPLSLSGLLSEPLQDPLALLDIGLPAGPPKPQEDPESDSGLSLNYSDAESLELEGTEAGRRRSEYVEMYPVEYPYSLMPNSLAHSNYTLPAAETPLALEPSSGPVRAKPTARGEAGSRDERRALAMKIPFPTDKIVNLPVDDFNELLARYPLTESQLALVRDIRRRGKNKVAAQNCRKRKLETIVQLERELERLTNERERLLRARGEADRTLEVMRQQLTELYRDIFQHLRDESGNSYSPEEYALQQAADGTIFLVPRGTKMEATD
- NFE2 half-life in a cycloheximide chase, HEK-293T co-transfected with wt NFE2 and wt ITCH (approximately 3.5 h with empty vector; 6.5 h with inactive ITCH-C830A): ~2 h
